Test results as given in patent US20230333112 (published 2023).

Target: T1, human NKp30 (BKM0179) (human, UniProt O14931)
T1 chain: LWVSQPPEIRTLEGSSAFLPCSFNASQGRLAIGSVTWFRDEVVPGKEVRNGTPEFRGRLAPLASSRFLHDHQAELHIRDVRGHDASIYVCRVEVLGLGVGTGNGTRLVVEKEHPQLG
Assay: SPR

- Kd: 1.48 nM
B1: BJM1078 (BJM0407 parental) (antibody, V domains shown)
VH: EIQLLESGGGLVQPGGSLRLSCAVSGFSITTTGYHWNWVRQAPGKGLEWVGYIYSSGSTSYNPSLKSRFTISRDTSKNTFYLQMNSLRAEDTAVYYCARGDWHYFDYWGQGTMVTVSS
VL: QSVTTQPPSVSGAPGQRVTISCSGEKLSDKYVHWYQQLPGTAPKMLIYENDRRPSGVPDRFSGSNSGNSASLAITGLQAEDEADYFCQFWDSTNSAVFGGGTQLTVL
